Source: article doi:10.1101/2021.02.22.432209 (bioRxiv, 2021)
Where two headings read alike, the source gives them in different places.

B1: GST-PreScission-p62 FIR 4P (domain or fragment)
chain: MESDNCSGGDDDWTHLSSKEVDPETGELQSLQMPESEGPEELDPEQEGPTGLKEA
B2: GABARAP (1-117), His8-TEV-GABARAP (natural protein)
chain: MKFVYKEEHPFEKRRSEGEKIRKKYPDRVPVIVEKAPKARIGDLDKKKYLVPSDLTVGQFYFLIRKRIHLRAEDALFFFVNNVIPPTSATMGQLYQEHHEEDFFLYIAYSDESVYGL

Tests used:
Assay in all cases: SPR
[1] = molecular target: B2
[2] = molecular target: LC3B (1-125), His8-TEV-LC3B (human, UniProt Q9GZQ8 1-120)
[3] = molecular target: B2; remark: listed apart in the source
[4] = molecular target: T1, Biotinylated FLCN-8xGlycine-AviTag/FNIP2 (human, UniProt Q8NFG4;Q9P278, biotin on the AviTag)
[5] = molecular target: T1, Biotinylated FLCN-8xGlycine-AviTag/FNIP2; remark: listed apart in the source

Binder: EKGEVEESEYVVITVRNEP [FNIP2 peptide 558-576, wild type (Short)]
- Kd [1]: 6200 ± 3000 nM

Binder: B1
- Kd [2]: 820 ± 40 nM
- Kd [3]: 670 ± 80 nM

Binder: B2
- Kd [4]: 0.071 ± 0.01 nM
- Kd [5]: 0.3 ± 0.018 nM

Binder: GSKIITALEKGEVEESEYVVITVRNEP [FNIP2 peptide 550-576, wild type (Long)]
- Kd [1]: 29 ± 2 nM
